Results taken from the supplement of paper PMC9112550, “Optimization of the antimicrobial peptide Bac7 by deep mutational scanning” (BMC Biology, 2022).

Test system: Escherichia coli TOP10
Test: shrunken log2 fold change of peptide-encoding DNA abundance (4.5 h post-induction vs induction); higher = less antimicrobial activity (less host growth inhibition)
Conditions: time post-induction: 4.5 h; library: site-saturation at positions 5, 18, 19, 20
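Note: peptides expressed intracellularly from a pBAD plasmid library in pooled LB shake-flask culture, induced with 0.3% L-arabinose, DNA abundance read by NGS, three biological replicates, DESeq2 with apeglm shrinkage.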

Sequence	shrunken log2 fold change
RRIRMRPPRLPRPRPRPVFRPRP	-0.0467
RRIRTRPPRLPRPRPRPFIYPRP	-0.657
RRIRDRPPRLPRPRPRPDGCPRP	0.252
RRIRLRPPRLPRPRPRPGWQPRP	0.175
RRIRYRPPRLPRPRPRPKWNPRP	-0.483
RRIRIRPPRLPRPRPRPAIWPRP	0.0492
RRIRMRPPRLPRPRPRPWPMPRP	0.304
RRIRRRPPRLPRPRPRPPTVPRP	0.24
RRIRARPPRLPRPRPRPYCHPRP	-0.381
RRIRARPPRLPRPRPRPPQTPRP	0.9
RRIRVRPPRLPRPRPRPWIIPRP	-0.652
RRIRSRPPRLPRPRPRPMATPRP	0.0201
RRIRFRPPRLPRPRPRPVSLPRP	-0.00718
RRIRKRPPRLPRPRPRPKYFPRP	-0.098
RRIRERPPRLPRPRPRPINGPRP	0.0683
RRIRKRPPRLPRPRPRPIQGPRP	-0.0243
RRIRRRPPRLPRPRPRPHAEPRP	0.317
RRIRSRPPRLPRPRPRPTTFPRP	-0.272
RRIRWRPPRLPRPRPRPMAGPRP	0.0179
RRIRWRPPRLPRPRPRPCIGPRP	-0.148
RRIRPRPPRLPRPRPRPHDTPRP	-0.272
RRIRARPPRLPRPRPRPNPTPRP	1.11
RRIRWRPPRLPRPRPRPYFTPRP	-0.624
RRIRSRPPRLPRPRPRPVGEPRP	0.332
RRIRKRPPRLPRPRPRPYGNPRP	-0.135

Sequence	shrunken log2 fold change
RRIRRRPPRLPRPRPRPHGEPRP	0.0136
RRIRGRPPRLPRPRPRPGYPPRP	0.115
RRIRGRPPRLPRPRPRPSEWPRP	0.393
RRIRSRPPRLPRPRPRPKCAPRP	0.0261
RRIRNRPPRLPRPRPRPMKCPRP	0.0131
RRIRSRPPRLPRPRPRPIMGPRP	-0.0258
RRIRCRPPRLPRPRPRPCAFPRP	-0.311
RRIRFRPPRLPRPRPRPLMLPRP	-0.282
RRIRRRPPRLPRPRPRPQDSPRP	-0.0402
RRIRTRPPRLPRPRPRPMWYPRP	-0.602
RRIRYRPPRLPRPRPRPPCAPRP	2.51
RRIRMRPPRLPRPRPRPDNIPRP	-0.184
RRIRFRPPRLPRPRPRPHAWPRP	-0.126
RRIRSRPPRLPRPRPRPWGMPRP	-0.0848
RRIRSRPPRLPRPRPRPWASPRP	-0.114
RRIRNRPPRLPRPRPRPTLAPRP	0.556
RRIRNRPPRLPRPRPRPHWVPRP	-0.0512
RRIRMRPPRLPRPRPRPWCPPRP	-0.101
RRIRPRPPRLPRPRPRPMTLPRP	-0.189
RRIRYRPPRLPRPRPRPAKPPRP	-0.0319
RRIRFRPPRLPRPRPRPVCTPRP	-0.324
RRIRMRPPRLPRPRPRPAPMPRP	0.953
RRIRRRPPRLPRPRPRPWNAPRP	-0.0963
RRIRVRPPRLPRPRPRPMQYPRP	-0.324
RRIRRRPPRLPRPRPRPNKYPRP	0.861

Sequence	shrunken log2 fold change
RRIRKRPPRLPRPRPRPIWHPRP	0.248
RRIRYRPPRLPRPRPRPRVKPRP	0.0364
RRIRARPPRLPRPRPRPNWTPRP	0.0524
RRIRNRPPRLPRPRPRPIAWPRP	0.228
RRIRKRPPRLPRPRPRPDHQPRP	-0.0497
RRIRCRPPRLPRPRPRPISLPRP	-0.426
RRIRFRPPRLPRPRPRPDYPPRP	-0.111
RRIRCRPPRLPRPRPRPKDSPRP	-0.198
RRIRQRPPRLPRPRPRPNFMPRP	0.0789
RRIRTRPPRLPRPRPRPNHDPRP	-0.3
RRIRRRPPRLPRPRPRPVAWPRP	0.341
RRIRHRPPRLPRPRPRPYIDPRP	-0.0149
RRIRKRPPRLPRPRPRPTLQPRP	0.594
RRIRRRPPRLPRPRPRPVFEPRP	0.192
RRIRERPPRLPRPRPRPYQVPRP	-0.109
RRIRMRPPRLPRPRPRPMPTPRP	2.8
RRIRLRPPRLPRPRPRPTPMPRP	0.143
RRIRARPPRLPRPRPRPFANPRP	0.0657
RRIRCRPPRLPRPRPRPKQFPRP	-0.188
RRIRYRPPRLPRPRPRPDWMPRP	0.0748
RRIRARPPRLPRPRPRPRKYPRP	0.0773
RRIRPRPPRLPRPRPRPDHYPRP	-0.203
RRIRWRPPRLPRPRPRPMTTPRP	0.1
RRIRTRPPRLPRPRPRPTYKPRP	-0.651
RRIRMRPPRLPRPRPRPNARPRP	0.323

Sequence	shrunken log2 fold change
RRIRTRPPRLPRPRPRPNFFPRP	0.0096
RRIRTRPPRLPRPRPRPEIPPRP	-0.104
RRIRYRPPRLPRPRPRPQRCPRP	-0.0766
RRIRVRPPRLPRPRPRPMHCPRP	-0.00923
RRIRNRPPRLPRPRPRPVRCPRP	0.0872
RRIRKRPPRLPRPRPRPPEAPRP	0.948
RRIRQRPPRLPRPRPRPYIVPRP	0.04
RRIRGRPPRLPRPRPRPTVDPRP	0.836
RRIRLRPPRLPRPRPRPSMSPRP	0.221
RRIRRRPPRLPRPRPRPVVTPRP	0.911
RRIRMRPPRLPRPRPRPEVIPRP	0.0213
RRIRKRPPRLPRPRPRPFCVPRP	0.706
RRIRGRPPRLPRPRPRPLLCPRP	1.17
RRIRARPPRLPRPRPRPVHQPRP	0.346
RRIRPRPPRLPRPRPRPNNIPRP	-0.848
RRIRERPPRLPRPRPRPQTWPRP	0.138
RRIRIRPPRLPRPRPRPSWPPRP	-0.227
RRIRLRPPRLPRPRPRPKNAPRP	-0.238
RRIRARPPRLPRPRPRPARKPRP	0.898
RRIRRRPPRLPRPRPRPSWPPRP	0.0963
RRIRHRPPRLPRPRPRPPLQPRP	-0.127
RRIRCRPPRLPRPRPRPMNWPRP	-0.217
RRIRYRPPRLPRPRPRPIKEPRP	0.0062
RRIRFRPPRLPRPRPRPKAGPRP	0.307
RRIRCRPPRLPRPRPRPRDDPRP	0.274

Sequence	shrunken log2 fold change
RRIRARPPRLPRPRPRPRPPPRP	1.26
RRIRTRPPRLPRPRPRPHQEPRP	-0.163
RRIRSRPPRLPRPRPRPKVRPRP	0.0559
RRIRRRPPRLPRPRPRPAKVPRP	0.0346
RRIRCRPPRLPRPRPRPYAYPRP	-0.208
RRIRVRPPRLPRPRPRPTQGPRP	0.291
RRIRHRPPRLPRPRPRPRKCPRP	-0.116
RRIRMRPPRLPRPRPRPKKEPRP	-0.0374
RRIRARPPRLPRPRPRPPFGPRP	0.436
RRIRHRPPRLPRPRPRPGHHPRP	-0.132
RRIRGRPPRLPRPRPRPQVTPRP	0.0826
RRIRYRPPRLPRPRPRPANLPRP	-1.19
RRIRYRPPRLPRPRPRPTCNPRP	-0.351
RRIRMRPPRLPRPRPRPGWRPRP	1.15
RRIRVRPPRLPRPRPRPCFFPRP	-0.137
RRIRYRPPRLPRPRPRPSVVPRP	-0.844
RRIRCRPPRLPRPRPRPPPRPRP	1.9
RRIRVRPPRLPRPRPRPDSDPRP	-0.0912
RRIRKRPPRLPRPRPRPPVQPRP	0.83
RRIRGRPPRLPRPRPRPLQDPRP	0.98
RRIRERPPRLPRPRPRPHKCPRP	0.0924
RRIRFRPPRLPRPRPRPQAEPRP	-0.263
RRIRQRPPRLPRPRPRPYEAPRP	-0.0514
RRIRPRPPRLPRPRPRPGMWPRP	0.303
RRIRDRPPRLPRPRPRPKKNPRP	0.125

Sequence	shrunken log2 fold change
RRIRCRPPRLPRPRPRPCDTPRP	-0.0925
RRIRERPPRLPRPRPRPNWPPRP	0.202
RRIRYRPPRLPRPRPRPQCIPRP	-0.0693
RRIRTRPPRLPRPRPRPGEPPRP	-0.026
RRIRGRPPRLPRPRPRPYDHPRP	-0.181
RRIRSRPPRLPRPRPRPDPQPRP	0.282
RRIRFRPPRLPRPRPRPLTFPRP	-0.391
RRIRRRPPRLPRPRPRPCSTPRP	0.0875
RRIRIRPPRLPRPRPRPKFEPRP	-0.361
RRIRTRPPRLPRPRPRPTFCPRP	0.147
RRIRMRPPRLPRPRPRPNQFPRP	-0.0124
RRIRYRPPRLPRPRPRPPHGPRP	-0.0619
RRIRVRPPRLPRPRPRPRKRPRP	0.572
RRIRSRPPRLPRPRPRPIDWPRP	0.217
RRIRGRPPRLPRPRPRPRVAPRP	0.816
RRIRTRPPRLPRPRPRPCRMPRP	-0.261
RRIRFRPPRLPRPRPRPIQLPRP	-0.336
RRIRDRPPRLPRPRPRPCPNPRP	-0.02
RRIRWRPPRLPRPRPRPEQYPRP	-0.171
RRIRHRPPRLPRPRPRPVDMPRP	-0.201
RRIRSRPPRLPRPRPRPQGCPRP	-0.0814
RRIRKRPPRLPRPRPRPTEIPRP	0.162
RRIRCRPPRLPRPRPRPWQIPRP	-0.153
RRIRCRPPRLPRPRPRPYCQPRP	-0.219
RRIRGRPPRLPRPRPRPYYAPRP	-0.242
